Source: article PMC8325321

Target: recombinant importin α2-His (Laodelphax striatellus)
Experiment: MST

NP-GST (natural protein)
Kd: 9.1 µM
